Measured values as given in article PMC3524239, “Brain Transcriptome-Wide Screen for HIV-1 Nef Protein Interaction Partners Reveals Various Membrane-Associated Proteins” (PLoS ONE, 2012).
Where no end group is shown, it is not given here. The star is where a group is joined. FITC = O=C1OC2(c3ccc(O)cc3Oc3cc(O)ccc32)c2ccc(NC(=S)*)cc21

Columns and labels:
[1] = target: fluoresceinyl-labeled peptide of PLP1; test: other fluorescence titration; 0.5 µM fluoresceinyl-labeled peptide titrated with recombinant Nef(2-210); compared with a buffer control titration; fit of a simple bimolecular model with ligand depletion
[2] = target: T1, recombinant HIV-1 SF2 Nef(2-210) protein (HIV-1 isolate SF2, UniProt P03407 2-210); test: as above; conditions: both partners purified
T1 construct: Nef protein of HIV-1 isolate SF2, residues 2-210; also called purified Nef protein; source: recombinant, purified, prepared as described in [68]
T1 sequence (P03407 2-210): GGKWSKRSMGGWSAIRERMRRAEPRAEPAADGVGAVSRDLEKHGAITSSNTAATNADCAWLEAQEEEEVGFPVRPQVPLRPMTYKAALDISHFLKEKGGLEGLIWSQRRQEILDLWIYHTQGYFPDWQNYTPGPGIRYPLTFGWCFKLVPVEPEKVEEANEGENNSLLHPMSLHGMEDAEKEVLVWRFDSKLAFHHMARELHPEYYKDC

Molecule: recombinant HIV-1 SF2 Nef(2-210) protein (from UniProt P03407 2-210) (natural protein)
- Kd [1]: 710 nM

B1: fluoresceinyl-labeled peptide GPM6B(112-127) (peptide, UniProt Q13491-1 112-127, looked up)
peptide: {FITC}-TTSAVKELHGEFKTTA
notes: GPM6B cytoplasmic loop, residues 112-127; numbers count on: UniProtKB entry Q13491-1; also called FITC-labeled GPM6B peptide; source: synthetic peptide
- Kd [2]: 640 ± 60 nM
